According to patent US20140287419A1, “Compositions Having Dicamba Decarboxylase Activity and Methods of Use” (priority 2013, published 2014):

Tests used:
[1] = Detection of 2,5-DCP product by GC/MS; type: biochemical; conditions: purified protein
Protocol: The decarboxylated and demethylated product of dicamba, 2,5-dichloro phenol or 2,5-DCP (FIG. 1E) is measured using a GC/MS analytical procedure with either liquid injection after liquid/liquid extraction using toluene as the extraction solvent or gas injection using head space method. The head space sample analysis is carried out on an Agilent GC/MS system with a 6890A GC, a 5973N MSD and a CTC CombiPAL auto-sampler or with a 7890A GC, a 5975C MSD and an Agilent GC Sampler 80 auto-sampler with Phenomenex ZB-MultiResidue-1 column (30 m length, 0.25 mm diameter, 0.25 um film) or equivalent. GC/MS parameters are: GC inlet temperature, 200° C.; Carry gas, helium in constant flow mode (1.2 mL/min); Oven temperature program, 70° C. for 1 min and then ramp to 275° C. at 40° C./min. […] The reaction vial is transferred to a agitator for incubation at 90° C. for 4 min at 500 rpm. With a syringe preheated at 110° C., 1000 uL of head space is injected with sample fill speed at 100 uL/sec. A 2-mm diameter liner is used in sample inlet. The MS data acquisition is done in SIM (selected ion monitoring) mode. The positive ion at M/Z 162 for the molecular ion of 2,-5-DCP is monitored at retention time of 4.06 min. Solvent delay for MS acquisition is set at 3 min. GC/MS parameters for liquid sample analysis are the same as those for head space analysis, except that the volume of liquid injection is 1 uL.

[2] = Dicamba decarboxylation activity of computationally designed protein variants; conditions: native protein or designed variant versus parent
[3] = Detection of 4-chloro-3-methoxy phenol product by LC-MS/MS; type: biochemical; conditions: purified protein
Protocol: The decarboxylated and chloro hydrolyzed product, 4-chloro-3-methoxy phenol (FIG. 1D), is measured using a LC-MS/MS analytical procedure. […] 10 ul is removed from the reaction mixture and mixed with 90 ul pre-chilled methanol followed by centrifugation at 14,000 rpm for 15 min at 4° C. 10 ul of the supernatant is then transferred into 170 ul ddH2O to achieve 5% methanol solution for injection. 50 ul of the prepared sample is injected into a 4000 Q Trap LC-MS/MS system for sample analysis. LC-MS/MS parameters are: Mobile Phase A, 2 mM ammonium acetate in water; Mobile Phase B, 2 mM ammonium acetate in methanol; Column, Aquasil, 100×2.1 mm, 3 μm, C18 column; Flow Rate, 0.6 ml/min. The MS/MS fragment 157/142 which is common to 4-chloro-3-methoxy phenol, 2-chloro-5-methoxy phenol, and 3-chloro-5-methoxy phenol is monitored at a retention time of 2.88 min.

[4] = 14C assay with purified protein (14CO2 captured on Ca(OH)2 filter paper); type: biochemical; conditions: [14C]-carboxyl-labeled dicamba
[5] = Saturation mutagenesis of SEQ ID NO:109, dicamba decarboxylation activity of point mutants
[6] = 14C assay with IPTG-induced recombinant E. coli cells (14CO2 capture from [14C]-carboxyl-labeled dicamba); conditions: E. coli cell assay, 108 sequences tested
[7] = dicamba decarboxylation activity of point mutants of SEQ ID NO: 109 (NNK saturation mutagenesis), relative to the unchanged template
[8] = dicamba decarboxylation activity of single point mutants of SEQ ID NO:109, relative to unchanged template

| Molecule | 2,5-DCP product [1] | Dicamba Decarboxylase Activity [2] | 4-chloro-3-methoxy phenol product [3] | CO2 product [4] | Average Activity (Fold of SEQ ID NO: 109) [5, 7] | Average Activity (Fold of SEQ ID NO: 109) [5, 8] | decarboxylation activity of dicamba [6] |
| --- | --- | --- | --- | --- | --- | --- | --- |
| SEQ ID NO:111: Design variant of SEQ ID NO: 1 (protein, Dicamba decarboxylase variant clone DC.4.112) MAQGKVALEEHFAIPETLQDSMGFVPGDYWKELMHRLLDIQDTRLKLMDAHGIETMILSLNAPAVQAIPDRRKAIEIARRANDVLAEECAKRPDRFLAFAALPLQDPDAATEELQRCVNDLGFVGALVNGFSQEGDGQTPLYYDLPQYRPFWGEVEKLDVPFYLHPRNPLPQDSRIYDGHPWLLGPTWAFAQETAVHALRLMASGLFDEHPRLNIILGHMGEGLPYMMWRIDHRMAWIKLPPRYPAKRRFMDYFNENFHITTSGNFRTQTLIDAILEIGADRILFSTDWPFENIDHASDWFNATSIAEADRVKIGRTNARRLFKLDGA | detected | displays an increase in dicamba decarboxylase activity | detected | detected |  |  |  |
| A64G: point mutation A64G of SEQ ID NO:109 (protein, Dicamba decarboxylase variant clone DC.4.032) MAQGKVALEEHFAIPETLQDSAGFVPGDYWKELQHRLLDIQDTRLKLMDAHGIETMILSLNAPGVQAIPDRRKAIEIARRANDVLAEECAKRPDRFLAFAALPLQDPDAATEELQRCVNDLGFVGALVNGFSQEGDGQTPLYYDLPQYRPFWGEVEKLDVPFYLHPRNPLPQDSRIYDGHPWLLGPTWAFAQETAVHALRLMASGLFDEHPRLNIILGHMGEGLPYMMWRIDHRVAWVKLPPRYPAKRRFMDYFNENFHITTSGNFRTQTLIDAILEIGADRILFSTDWPFENIDHASDWFNATSIAEADRVKIGRTNARRLFKLDGA |  |  |  |  | 2.6 Fold of SEQ ID NO: 109 | 2.6 Fold of SEQ ID NO: 109 |  |
| N61G: point mutation N61G of SEQ ID NO:109 (protein, Dicamba decarboxylase variant clone DC.4.032) MAQGKVALEEHFAIPETLQDSAGFVPGDYWKELQHRLLDIQDTRLKLMDAHGIETMILSLGAPAVQAIPDRRKAIEIARRANDVLAEECAKRPDRFLAFAALPLQDPDAATEELQRCVNDLGFVGALVNGFSQEGDGQTPLYYDLPQYRPFWGEVEKLDVPFYLHPRNPLPQDSRIYDGHPWLLGPTWAFAQETAVHALRLMASGLFDEHPRLNIILGHMGEGLPYMMWRIDHRVAWVKLPPRYPAKRRFMDYFNENFHITTSGNFRTQTLIDAILEIGADRILFSTDWPFENIDHASDWFNATSIAEADRVKIGRTNARRLFKLDGA |  |  |  |  | 2.3 Fold of SEQ ID NO: 109 |  |  |
| SEQ ID NO:113: Design variant of SEQ ID NO: 1 (protein, Dicamba decarboxylase variant clone DC.4.114) MAQGKVALEEHFAIPETLQDSAGFVPGDYLKELFHRLLDIQDTRLKLMDAHGIETMILSLNAPAVQAIPDRRKAIEIARRANDVLAEECAKRPDRFLAFAALPLQDPDAATEELQRCVNDLGFVGALVNGFSQEGDGQTPLYYDLPQYRPFWGEVEKLDVPFYLHPRNPLPQDSRIYDGHPWLLGPTWAFAQETAVHALRLMASGLFDEHPRLNIILGHMGEGLPYMMWRIDHRVAWVKLPPRYPAKRRFMDYFNENFHITTSGNFRTQTLIDAILEIGADRILFSTDWPFENIDHASDWFNATSIAEADRVKIGRTNARRLFKLDGA | detected | displays an increase in dicamba decarboxylase activity | detected | detected |  |  |  |
| P63V: point mutation P63V of SEQ ID NO:109 (protein, Dicamba decarboxylase variant clone DC.4.032) MAQGKVALEEHFAIPETLQDSAGFVPGDYWKELQHRLLDIQDTRLKLMDAHGIETMILSLNAVAVQAIPDRRKAIEIARRANDVLAEECAKRPDRFLAFAALPLQDPDAATEELQRCVNDLGFVGALVNGFSQEGDGQTPLYYDLPQYRPFWGEVEKLDVPFYLHPRNPLPQDSRIYDGHPWLLGPTWAFAQETAVHALRLMASGLFDEHPRLNIILGHMGEGLPYMMWRIDHRVAWVKLPPRYPAKRRFMDYFNENFHITTSGNFRTQTLIDAILEIGADRILFSTDWPFENIDHASDWFNATSIAEADRVKIGRTNARRLFKLDGA |  |  |  |  | 1.8 Fold of SEQ ID NO: 109 |  |  |
| SEQ ID NO:112: Design variant of SEQ ID NO: 1 (protein, Dicamba decarboxylase variant clone DC.4.113) MAQGKVALEEHFAIPETLQDSAGFVPGDYWKELVHRLLDIQDTRLKLMDAHGIETMILSLNAPAVQAIPDRRKAIEIARRANDVLAEECAKRPDRFLAFAALPLQDPDAATEELQRCVNDLGFVGALVNGFSQEGDGQTPLYYDLPQYRPFWGEVEKLDVPFYLHPRNPLPQDSRIYDGHPWLLGPTWAFAQETAVHALRLMASGLFDEHPRLNIILGHMGEGLPYMMWRIDHRVAWVKLPPRYPAKRRFMDYFNENFHITTSGNFRTQTLIDAILEIGADRILFSTDWPFENIDHASDWFNATSIAEADRVKIGRTNARRLFKLDGA | detected | displays an increase in dicamba decarboxylase activity | detected | detected |  |  |  |
| N61S: point mutation N61S of SEQ ID NO:109 (protein, Dicamba decarboxylase variant clone DC.4.032) MAQGKVALEEHFAIPETLQDSAGFVPGDYWKELQHRLLDIQDTRLKLMDAHGIETMILSLSAPAVQAIPDRRKAIEIARRANDVLAEECAKRPDRFLAFAALPLQDPDAATEELQRCVNDLGFVGALVNGFSQEGDGQTPLYYDLPQYRPFWGEVEKLDVPFYLHPRNPLPQDSRIYDGHPWLLGPTWAFAQETAVHALRLMASGLFDEHPRLNIILGHMGEGLPYMMWRIDHRVAWVKLPPRYPAKRRFMDYFNENFHITTSGNFRTQTLIDAILEIGADRILFSTDWPFENIDHASDWFNATSIAEADRVKIGRTNARRLFKLDGA |  |  |  |  | 2.5 Fold of SEQ ID NO: 109 | 2.5 Fold of SEQ ID NO: 109 |  |
| SEQ ID NO:41: amidohydrolase 2, Polaromonas sp. JS666 (protein, listed as Polaromonas sp.) MANGKIALEEHFATEETLMDSAGFVPDKDWPELRSRLLDIQDRRVRLMDEHGIETMILSLNAPAVQAIADSTRANETARRANDFLAEQVAKQPTRFRGFAALPMQDPELAARELERCVKELGFVGALVNGFSQDNRSAVPLYYDMAQYWPFWETVQALDVPFYLHPRNPLPSDARIYDGHAWLLGPTWAFGQETAVHALRLMGSGLFDKYPALKIILGHMGEGLPYSMWRIDHRNAWIKTTPKYPAKRKIVDYFNENFYLTTSGNFRTQTLIDAILEIGADRILFSTDWPFENIDHAADWFENTSISEADRKKIGWGNAQNLFKLNR | detected | native dicamba decarboxylase activity | detected | detected |  |  | showed decarboxylation activity of dicamba |
